Source: the supplement of paper PMC10724198
± gives the standard deviation of the averaged measurements.

Test system: Saccharomyces cerevisiae
Experiment: protein stability index of tFT-peptide fusion (C-terminal peptide) (PSI (0-1 scale)); higher = more stable (slower turnover)
Conditions: genetic background: wild type; temperature: 30 C
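Also: PSI is a weighted mean of sequencing reads over stability bins, variants kept only with over 10 reads, mCherry proximal and sfGFP distal, peptide attached via GGGS linker.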

Point of comparison: PVPLTPRCPSVT, protein stability index 0.6 ± 0.019. Against it:
- PVLLLLSLPRPL — higher, 0.667 ± 0.014
- PVLLVWDLPAVL — higher, 0.714 ± 0.086
- PVPADGPSPPQP — higher, 0.721 ± 0.035
- PVPDDVTVLLSR — higher, 0.804 ± 0.12
- PVPLEAPSPPPP — higher, 0.671 ± 0.022
- PVPLPSSSPSPY — within error, 0.663 ± 0.046
- PVPLVLSFLCDL — higher, 0.686 ± 0.03
- PVPPAPASPPTG — higher, 0.742 ± 0.06
- PVPPLPPRPPPL — within error, 0.619 ± 0.11
- PVPPLRRFPPLF — within error, 0.648 ± 0.036
- PVPPSARHSSPP — higher, 0.66 ± 0.021
- PVPVFLLLFFSP — lower, 0.496 ± 0.052
- PVSPLPGPPPPP — higher, 0.7681 ± 0.0053
- PVSPPLSLASPS — higher, 0.706 ± 0.047
- PVSRSVHIEDKR — higher, 0.727 ± 0.052
- PVVLGVGMEGIS — higher, 0.7137 ± 0.0068
- PVWVDRGVLWSV — higher, 0.716 ± 0.094
- PWFGSSPRLAAC — higher, 0.7346 ± 0.0073
- PWGGMNWGGLSV — higher, 0.745 ± 0.073
- PWKDPSLLLHRS — higher, 0.743 ± 0.061
- PWPFKQHEHRRA — higher, 0.847 ± 0.015
- PYIKDRYSPANN — higher, 0.781 ± 0.062
- PYLLPPFLPSPP — higher, 0.732 ± 0.029
- PYSPPYSLTSLS — higher, 0.708 ± 0.075
- PYVAFMLPSPWQ — higher, 0.672 ± 0.033
- QAHRHASPKTRT — higher, 0.654 ± 0.032
- QAVQTLTAETKH — within error, 0.63 ± 0.051
- QAVVGRVRLRGE — higher, 0.6775 ± 0.0017
- QCFRYSVFVGRG — within error, 0.63 ± 0.019
- QCIRLFCPLVSL — within error, 0.587 ± 0.014
- QDTRRRAPYPPS — higher, 0.673 ± 0.051
- QEPDARYGPGRT — within error, 0.692 ± 0.12
- QESGPEAGIPPL — higher, 0.7222 ± 0.003
- QFTSGCPAYLLK — higher, 0.678 ± 0.0079
- QGEARRPPSPGR — within error, 0.638 ± 0.19
- QGGCAATRARGS — higher, 0.631 ± 0.0033
- QGLSHVVTCLFG — higher, 0.721 ± 0.07
- QGRLRLSLLVSG — lower, 0.526 ± 0.0048
- QGRYPLNVLIRI — within error, 0.57 ± 0.057
- QGTHRGSGGVTE — higher, 0.716 ± 0.023
- QGVPNEPLWARP — higher, 0.72 ± 0.027
- QHTHNRLRAAQD — higher, 0.678 ± 0.029
- QIKPSLGLDKPS — higher, 0.683 ± 0.061
- QIQKINTKSKKN — higher, 0.699 ± 0.021
- QIRRPRRFFYVS — within error, 0.642 ± 0.17
- QIVDHCLVWLRG — higher, 0.628 ± 0.0066
- QKISEKNISEKN — higher, 0.7063 ± 0.0013
- QKKKIRKKKKTT — higher, 0.685 ± 0.0074
- QKKKKKIKEHSK — within error, 0.626 ± 0.031
- QKKRKKPGKWKS — higher, 0.662 ± 0.022
- QKQQRIKQTAKK — higher, 0.703 ± 0.048
- QKRIALNSQKNT — higher, 0.688 ± 0.048
- QKRKKQNKDGGT — higher, 0.716 ± 0.042
- QKSGELVKNVRI — higher, 0.673 ± 0.035
- QKVNKDTRTSEF — higher, 0.709 ± 0.014
- QLNGTVTRPGDF — higher, 0.7 ± 0.036
- QLRPLSPLPPQP — higher, 0.738 ± 0.029
- QLSLSTPAGRLI — higher, 0.6886 ± 0.0068
- QLSRHCYQPSGG — higher, 0.671 ± 0.0073
- QMKRPSCKGTCD — higher, 0.679 ± 0.044
- QNEVWDACVGRC — higher, 0.702 ± 0.017
- QNGNRPCCEKAW — higher, 0.681 ± 0.021
- QNIRTELTSPRV — higher, 0.6596 ± 0.0016
- QNKNPNRTEKSK — higher, 0.701 ± 0.056
- QNRKELVERPKR — higher, 0.702 ± 0.017
- QNTTESANWSIT — higher, 0.696 ± 0.052
- QPALGNTNKYKN — higher, 0.676 ± 0.049
- QPLPLPSPPPPA — higher, 0.741 ± 0.058
- QPPSPSLFFPRV — higher, 0.704 ± 0.016
- QPSDTSHPHQPS — higher, 0.692 ± 0.028
- QPYRQAKNQRLP — higher, 0.728 ± 0.02
- QQRHITHRKIRI — higher, 0.6595 ± 0.0048
- QRARDSLVQTRH — higher, 0.681 ± 0.032
- QRGGTWGALWEG — higher, 0.671 ± 0.02
- QRMKHQKVTSNP — higher, 0.732 ± 0.06
- QRRARVSDISVY — higher, 0.634 ± 0.012
- QSAPWPSPLSFS — higher, 0.718 ± 0.019
- QSNEHVRQSETS — higher, 0.682 ± 0.03
- QSNQEETRQDGT — higher, 0.687 ± 0.0084
- QSPPILVPSSDV — higher, 0.686 ± 0.067
- QSRERDGSIRNP — higher, 0.644 ± 0.021
- QTKSLLTPLLNL — higher, 0.65 ± 0.018
- QTPNRTPIRPPP — higher, 0.716 ± 0.0093
- QTSASSAALLRP — within error, 0.622 ± 0.042
- QTVSISGVPDGF — higher, 0.6669 ± 0.001
- QVAIEKTTHVQE — within error, 0.637 ± 0.13
- QVFVRRSSPRVL — higher, 0.666 ± 0.014
- QVRTWGGCWGRG — higher, 0.674 ± 0.0083
- QVVLCCAIDKNT — higher, 0.708 ± 0.082
- QWSNSRPVGLTG — higher, 0.676 ± 0.017
- QYKKKEKKQNRT — within error, 0.624 ± 0.1
- QYSDRQGGRATD — higher, 0.708 ± 0.015
- QYSFFLRSPEVF — lower, 0.512 ± 0.038
- RAALEAPGCIQV — higher, 0.73316 ± 3e-05
- RAIGSRIIIWGL — lower, 0.564 ± 0.011
- RALALVHRQRVG — within error, 0.648 ± 0.096
- RALPLLPLPRLS — higher, 0.66 ± 0.024
- RALPSPRSPLSI — within error, 0.616 ± 0.041
- RAPDFYPTHPLA — higher, 0.701 ± 0.057
- RAPRSPPPPALA — higher, 0.77114 ± 0.00071
- RARRYNRQSTPT — higher, 0.702 ± 0.023
- RASPFPAMSAQV — higher, 0.684 ± 0.023
- RATTNKRIRVEL — higher, 0.704 ± 0.011
- RCAQKSMALLSD — higher, 0.68 ± 0.0097
- RCAWSEVFEGCG — higher, 0.71 ± 0.021
- RCEGNGKRASTE — within error, 0.632 ± 0.031
- RCGRGVAAEWLS — within error, 0.668 ± 0.06
- RCLGSTCRFFTF — higher, 0.7 ± 0.065
- RCNKETKNKDVL — higher, 0.7348 ± 0.0054
- RCRCPHFLCRFS — within error, 0.6165 ± 0.0049
- RCRKVSTISRFK — higher, 0.7053 ± 0.002
- RCSFSYLPVIQV — within error, 0.582 ± 0.006
- RCSKFRKFFKHR — higher, 0.6565 ± 0.0031
- RCSNWFVGFCPF — higher, 0.733 ± 0.062
- RCTQCFSPFSTD — higher, 0.7221 ± 0.0052
- RCVFGFGGVVVV — within error, 0.622 ± 0.073
- RCWEWADWPRDG — higher, 0.764 ± 0.029
- RCYTLFLGRSRV — higher, 0.68037 ± 0.00022
- RDGIMTDDKRIS — higher, 0.707 ± 0.035
- RDILFIGINIYK — within error, 0.585 ± 0.049
- RDLRGGIADSAG — within error, 0.684 ± 0.086
- RDMCVFSGGSGV — higher, 0.68 ± 0.048
- RDPERYAQLTAP — higher, 0.776 ± 0.0086
- RDRAPLLNLACL — within error, 0.689 ± 0.074
- RDRTVGLLEGTA — within error, 0.695 ± 0.085
- RDSDSSLRHNSH — higher, 0.682 ± 0.061
- REAGGSQVKRRL — within error, 0.671 ± 0.12
- REDSGGVNWGRC — higher, 0.692 ± 0.039
- REEMASGGCIIR — higher, 0.6845 ± 0.0039
- REERSRQSLVKW — within error, 0.675 ± 0.06
- REGYGVGRERGD — higher, 0.649 ± 0.017
- REKEKMRVVGMT — higher, 0.746 ± 0.036
- REKKDGKLSTTR — higher, 0.761 ± 0.045
- REKKDKKNSKKI — higher, 0.701 ± 0.022
- REMKGKLHEHRK — higher, 0.6792 ± 0.0029
- RETGTSVEQVRT — higher, 0.68 ± 0.036
- RETPPALRSFPV — within error, 0.613 ± 0.26
- REVLYCTSMLQD — higher, 0.707 ± 0.038
- REVSGLTIRMVR — higher, 0.659 ± 0.03
- REWCSGGPCAAS — higher, 0.721 ± 0.043
- REYGVKRIEIKQ — higher, 0.682 ± 0.04
- RFAEEDFIVERT — higher, 0.727 ± 0.019
- RFAGCFSFFRAA — higher, 0.683 ± 0.035
- RFALSCITPCIL — within error, 0.661 ± 0.069
- RFAWLPAPGRIV — higher, 0.647 ± 0.015
- RFCIARGSLLDY — lower, 0.554 ± 0.025
- RFCVTASDLREF — higher, 0.751 ± 0.057
- RFDFSVTPHLGF — higher, 0.668 ± 0.036
- RFEFFHLVSWLL — within error, 0.644 ± 0.052
- RFGRGAGGGLGG — higher, 0.6763 ± 0.0013
- RFGSFVSISRVG — within error, 0.603 ± 0.14
- RFGWRRGRVGSS — higher, 0.734 ± 0.038
- RFLPALSRSLPS — higher, 0.782 ± 0.11
- RFPFSFSGFFLL — lower, 0.5532 ± 0.0033
- RFPPFSFAPCLI — higher, 0.712 ± 0.035
- RFPPWVSSIFAF — lower, 0.494 ± 0.0082
- RFPSSCAPLSPY — within error, 0.621 ± 0.029
- RFPVLRFPASFL — higher, 0.669 ± 0.048
- RGAGRTHCLRAP — higher, 0.6613 ± 0.0055
- RGAHPCLDLRSE — within error, 0.654 ± 0.067
- RGAPLSPPPPRS — within error, 0.714 ± 0.13
- RGARVGKGDACW — within error, 0.607 ± 0.069
- RGCRVMATGVGV — higher, 0.651 ± 0.022
- RGCSGGVVDWIG — higher, 0.679 ± 0.017
- RGEARDARGLEW — higher, 0.763 ± 0.12
- RGEVGKVRGPGT — higher, 0.71 ± 0.052
- RGFKEPLSFKAG — within error, 0.613 ± 0.059
- RGGASGPFVWAG — higher, 0.71 ± 0.057
- RGGEGVWVVGRV — higher, 0.703 ± 0.075
- RGGERAGETAGQ — higher, 0.695 ± 0.053
- RGGFVEGFVLVR — within error, 0.611 ± 0.073
- RGGGPTGARPAM — within error, 0.711 ± 0.1
- RGGGQVLGARVG — within error, 0.634 ± 0.017
- RGGGWGRKVSVG — within error, 0.659 ± 0.095
- RGGPSPAASSRG — higher, 0.725 ± 0.057
- RGGRGGPGWVAG — higher, 0.681 ± 0.025
- RGHKATNICHSV — higher, 0.721 ± 0.042
- RGIILSSSGFVW — higher, 0.735 ± 0.012
- RGKRGRRGDEAG — within error, 0.712 ± 0.093
- RGLVRLIRGGYN — within error, 0.698 ± 0.18
- RGMGPGAFVSGQ — within error, 0.677 ± 0.077
- RGPAFAQPLPFL — higher, 0.738 ± 0.034
- RGPELDRRLPLC — higher, 0.663 ± 0.03
- RGPGKKQIISQK — higher, 0.741 ± 0.02
- RGPGSNGSLPWF — higher, 0.689 ± 0.056
- RGRAGTRGVVEK — higher, 0.71 ± 0.024
- RGRAPLRRPPGP — higher, 0.717 ± 0.048
- RGRAVGVGGGGV — within error, 0.626 ± 0.027
- RGRCLGAESRGG — higher, 0.767 ± 0.069
- RGRKEQSKKKKE — within error, 0.647 ± 0.13
- RGRLCRESGSRS — higher, 0.711 ± 0.033
- RGRMGLGSPGGG — within error, 0.639 ± 0.06
- RGRRRAADRSLR — within error, 0.749 ± 0.14
- RGRSLPIPHTFP — higher, 0.714 ± 0.085
- RGSTLPRRVRLK — within error, 0.641 ± 0.042
- RGSVDGTLQKPG — higher, 0.6691 ± 0.00087
- RGSWSDEFWREG — higher, 0.84 ± 0.056
- RGTVPHSLDLYL — higher, 0.679 ± 0.025
- RGVETGRGREKE — within error, 0.643 ± 0.046
- RGVRLGPSVVVG — higher, 0.696 ± 0.051
- RHLALSRPTPFP — higher, 0.703 ± 0.04
